PMC10591846

Target: GST-Pirh2 (construct of Figures S5 and S12 not stated) (human) (UniProt Q96PM5)
Assay: AlphaScreen or HTRF

GST-Pirh2 (construct of Figures S5 and S12 not stated) (human), sequence (Q96PM5 whole entry): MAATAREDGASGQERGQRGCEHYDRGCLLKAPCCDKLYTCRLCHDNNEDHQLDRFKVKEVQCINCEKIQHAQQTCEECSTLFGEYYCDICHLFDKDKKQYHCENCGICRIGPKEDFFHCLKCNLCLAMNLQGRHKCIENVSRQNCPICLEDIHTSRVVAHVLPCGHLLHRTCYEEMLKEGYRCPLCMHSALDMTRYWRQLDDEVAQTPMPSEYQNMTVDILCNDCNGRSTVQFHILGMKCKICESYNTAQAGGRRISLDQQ

Substance: B. subtilis SsrA tag (peptide)
- IC50: 470 nM
